Measured values reported in US20260001914A1, “MACROCYCLIC PEPTIDES TARGETING KRAS” (Merck Sharp & Dohme LLC, priority 2022, published 2026).

Assays:
[1] = target: KRAS-G12D in AsPC-1 cells (UniProt P01116); assay: cell-based or functional assay
[2] = target: Biotin-labeled KRAS-G12D protein (UniProt P01116-2 1-169, limits assumed, biotin label (site not stated); loaded with BODIPY-GDP); assay: cell-based or functional assay

cyclo(FLac-NMeA-3Pal-Nle-Phe2F-Nva-NMe3Pal-amBCP) (peptide)
AlphaScreen @18 h, EC50 [1]: > 50800 nM | SOS assay EC50 [2]: 154 nM

cyclo(FLac-NMeA-3Pal-NvaF-Phe2F-Nle-NMe3Pal-amBCP) (peptide)
AlphaScreen @18 h, EC50 [1]: > 50800 nM | SOS assay EC50 [2]: 35.1 nM

cyclo(F-DabN3~3Pal-cBuA-V-Nle-NMe3Pal-amBCP) (peptide)
AlphaScreen @18 h, EC50 [1]: > 50800 nM | SOS assay EC50 [2]: 6560 nM

cyclo(FLac-NMeS-PyrimAla-Nle-Phe2F-Nle-NMe3Pal-amBCP) (peptide)
AlphaScreen @18 h, EC50 [1]: > 50800 nM | SOS assay EC50 [2]: 375 nM

cyclo(FLac-NMeNle-3Pal-DabN3-Phe2F-Nle-NMe3Pal-amBCP) (peptide)
AlphaScreen @18 h, EC50 [1]: 21700 nM | SOS assay EC50 [2]: 3060 nM

cyclo(FLac-NMeA-4F3Pal-Nle-Phe2F-Nle-NMe3Pal-amBCP) (peptide)
AlphaScreen @18 h, EC50 [1]: 11800 nM | SOS assay EC50 [2]: 18.7 nM

cyclo(FLac-NMeA-PyrimAla-Nle-Phe2F-Nle-NMeYOMe-amBCP) (peptide)
AlphaScreen @18 h, EC50 [1]: 439 nM | SOS assay EC50 [2]: 11 nM

cyclo(FLac-NMeNvalmid-4F3Pal-Nle-Phe2F-Nle-NMeF-amBCP) isomer 2 (peptide)
AlphaScreen @18 h, EC50 [1]: > 50800 nM | SOS assay EC50 [2]: 69.7 nM

cyclo(FLac-NMeA-PyrimAla-Nle-Phe2F-Nle-NMePhe4Me-amBCP) (peptide)
AlphaScreen @18 h, EC50 [1]: 223 nM | SOS assay EC50 [2]: 19.1 nM

cyclo(FLac-NMeA-PyrimAla-cPrA-3Pal2F-hL-NMeF-amBCP) (peptide)
AlphaScreen @18 h, EC50 [1]: 4180 nM | SOS assay EC50 [2]: 31 nM

cyclo(FLac-NMeA-PyrimAla-Nle-Phe2F-hL-NMeF-amBCP) (peptide)
AlphaScreen @18 h, EC50 [1]: 1110 nM | SOS assay EC50 [2]: 7.87 nM

cyclo(FLac-NMeA-3Pal-Nle-Phe2F-Nle-NMeCha-amBCP) (peptide)
AlphaScreen @18 h, EC50 [1]: > 50800 nM | SOS assay EC50 [2]: 2940 nM

cyclo(FLac-NMeA-PyrimAla-cBuA-Phe2F-Nle3F2-NMeF-amBCP) (peptide)
AlphaScreen @18 h, EC50 [1]: 542 nM | SOS assay EC50 [2]: 2.39 nM

cyclo(FLac-NMeNvaF-PyrimAla-cPrA-Phe2F-hL-NMeF-amBCP) (peptide)
AlphaScreen @18 h, EC50 [1]: 1230 nM | SOS assay EC50 [2]: 26 nM

cyclo(FLac-NMeA-PyrimAla-cPrA-Phe2F-Hag-NMeHag-amBCP) (peptide)
AlphaScreen @18 h, EC50 [1]: 41200 nM | SOS assay EC50 [2]: 225 nM

cyclo(FLac-NMeA-3Pal2F-Nle-Phe2F-Nle-NMe3Pal-amBCP) (peptide)
AlphaScreen @18 h, EC50 [1]: 50200 nM | SOS assay EC50 [2]: 1450 nM

cyclo(FLac-NMeDabN3-3Pal-Nle-Phe2F-Nle-NMe3Pal-amBCP) (peptide)
AlphaScreen @18 h, EC50 [1]: 3950 nM | SOS assay EC50 [2]: 87.6 nM

cyclo(FLac-NMeA-PyrimAla-cBuA-Phe2F-hL-NMeF-amBCP) (peptide)
AlphaScreen @18 h, EC50 [1]: 330 nM | SOS assay EC50 [2]: 6.47 nM

cyclo(FLac-NMeA-PyrimAla-cPrA-Phe2F-hL-NMeF-amBCP) (peptide)
AlphaScreen @18 h, EC50 [1]: 168 nM | SOS assay EC50 [2]: 1.95 nM

cyclo(Phe3Me-NMeA-3Pal-Nle-Phe2F-Nle-NMe3Pal-amBCP) (peptide)
AlphaScreen @18 h, EC50 [1]: 32300 nM | SOS assay EC50 [2]: 22.3 nM

cyclo(Phe4Me-NMeA-3Pal-Nle-Phe2F-Nle-NMe3Pal-amBCP) (peptide)
AlphaScreen @18 h, EC50 [1]: 37200 nM | SOS assay EC50 [2]: 91.1 nM

cyclo(FLac-NMeA-3Pal-cBuA-TyrOMe-Ahp-NMeF-amBCP) (peptide)
AlphaScreen @18 h, EC50 [1]: 886 nM | SOS assay EC50 [2]: 37.9 nM

cyclo(FLac-NMeA-3Pal-Nle-Phe2F-Nle-NMe3Pal-amBCP) (peptide)
AlphaScreen @18 h, EC50 [1]: 7300 nM | SOS assay EC50 [2]: 36 nM

cyclo(FLac-NMeA-PyrimAla-Leu3F-Phe2F-hL-NMeF-amBCP) (peptide)
AlphaScreen @18 h, EC50 [1]: 7730 nM | SOS assay EC50 [2]: 114 nM

cyclo(FLac-NMeA-4F3Pal-Nle-Phe2F-Nva-NMeF-amBCP) (peptide)
AlphaScreen @18 h, EC50 [1]: > 50800 nM | SOS assay EC50 [2]: 997 nM

cyclo(FLac-NMeNvalmid-4CF33Pal-Nle-Phe2F-Nle-NMeF-amBCP) isomer 2 (peptide)
AlphaScreen @18 h, EC50 [1]: > 50800 nM | SOS assay EC50 [2]: 62.8 nM

cyclo(F-NMeA-3Pal-cBuA-TyrOMe-Ahp-NMeF-aMeC1-C1Ac) (peptide)
AlphaScreen @18 h, EC50 [1]: > 50800 nM | SOS assay EC50 [2]: 146 nM

cyclo(FLac-NMeS-3Pal-Nle-Phe2F-Nle-NMe3Pal-amBCP) (peptide)
AlphaScreen @18 h, EC50 [1]: > 50800 nM | SOS assay EC50 [2]: 466 nM

cyclo(FLac-NMeNvaF2-PyrimAla-cPrA-Phe2F-hL-NMeF-amBCP) (peptide)
AlphaScreen @18 h, EC50 [1]: 1770 nM | SOS assay EC50 [2]: 173 nM

cyclo(FLac-NMeNvalmid-PyrimAla-Nle-Phe2F-Nle-NMeF-amBCP) isomer 2 (peptide)
AlphaScreen @18 h, EC50 [1]: 11100 nM | SOS assay EC50 [2]: 25.3 nM

cyclo(FLac-NMeA-PyrimAla-NvaF-Phe2F-hL-NMeF-amBCP) (peptide)
AlphaScreen @18 h, EC50 [1]: 2260 nM | SOS assay EC50 [2]: 7.79 nM

cyclo(INal-R-Phe4CH2NH2-Nle-Y-Nle-NMeF-daMeC-C1Ac) (peptide)
AlphaScreen @18 h, EC50 [1]: > 50800 nM | SOS assay EC50 [2]: 1460 nM

cyclo(FLac-NMeNvalmid-PyrimAla-Nle-Phe2F-Nle-NMeF-amBCP) isomer 1 (peptide)
AlphaScreen @18 h, EC50 [1]: > 50800 nM | SOS assay EC50 [2]: 494 nM

cyclo(FLac-R-3Pal-Nle-Phe2F-Nle-NMeF-amBCP) (peptide)
AlphaScreen @18 h, EC50 [1]: 39400 nM | SOS assay EC50 [2]: 20.7 nM

cyclo(Phe4F-NMeA-3Pal-Nle-Phe2F-Nle-NMe3Pal-amBCP) (peptide)
AlphaScreen @18 h, EC50 [1]: 42800 nM | SOS assay EC50 [2]: 99.9 nM

cyclo(FLac-NMeA-PyrimAla-Nle-2Pal6F-Nle-NMeF-amBCP) (peptide)
AlphaScreen @18 h, EC50 [1]: 48700 nM | SOS assay EC50 [2]: 559 nM

cyclo(TyrOMe-NMeA~3Pal-Nle-Phe2F-Nle-NMe3Pal-amBCP) (peptide)
AlphaScreen @18 h, EC50 [1]: > 50800 nM | SOS assay EC50 [2]: 756 nM

cyclo(FLac-NMeA-PyrimAla-Nle-Phe2F-NleF-NMeF-amBCP) (peptide)
AlphaScreen @18 h, EC50 [1]: 2330 nM | SOS assay EC50 [2]: 10.1 nM

cyclo(4Me3Pal-NMeA-3Pal-Nle-Phe2F-Nle-NMe3Pal-amBCP) (peptide)
AlphaScreen @18 h, EC50 [1]: > 50800 nM | SOS assay EC50 [2]: 2890 nM

cyclo(CPhe-NMeA-PyrimAla-cPrA-Phe2F-Nle3F2-NMeF-MeOximamBCP) isomer 2 (peptide)
AlphaScreen @18 h, EC50 [1]: 128 nM | SOS assay EC50 [2]: 1.7 nM

cyclo(F-R-3Pal-Nle-Phe2F-Nle-NMeF-aMeC1-C1Ac) (peptide)
AlphaScreen @18 h, EC50 [1]: > 50800 nM | SOS assay EC50 [2]: 12.8 nM

cyclo(FLac-NMeA-PyrimAla-NleF-Phe2F-NleF-NMeF-amBCP) (peptide)
AlphaScreen @18 h, EC50 [1]: 3720 nM | SOS assay EC50 [2]: 37.4 nM

cyclo(CPhe-NMeA-PyrimAla-cPrA-Phe2F-Nle3F2-NMeF-MeOximamBCP) isomer 1 (peptide)
AlphaScreen @18 h, EC50 [1]: 3400 nM | SOS assay EC50 [2]: 51 nM

cyclo(FLac-NMeA-PyrimAla-hL-Phe2F-Nle-NMe3Pal-amBCP) (peptide)
AlphaScreen @18 h, EC50 [1]: > 50800 nM | SOS assay EC50 [2]: 228 nM

cyclo(FLac-NMeNvalmid-3Pal-Nle-Phe2F-Nle-NMeF-amBCP) (peptide)
AlphaScreen @18 h, EC50 [1]: 5160 nM | SOS assay EC50 [2]: 28.9 nM

cyclo(FLac-NMeA-PyrimAla-Nle-Phe2F-Nle-NMePhe3Me-amBCP) (peptide)
AlphaScreen @18 h, EC50 [1]: 256 nM | SOS assay EC50 [2]: 6.03 nM

cyclo(1Nal-R-K-Nle-Phe3COOH-Nle-NMeF-Cysteamine-C1Ac) (peptide)
AlphaScreen @18 h, EC50 [1]: > 50800 nM | SOS assay EC50 [2]: 2120 nM

cyclo(FLac-AlaCN-3Pal-Nle-Phe2F-Nle-NMe3Pal-amBCP) (peptide)
AlphaScreen @18 h, EC50 [1]: > 50800 nM | SOS assay EC50 [2]: 3750 nM

cyclo(F-NMeA~3Pal-Nle-Phe2F-Nle-NMe3Pal-amBCP) (peptide)
AlphaScreen @18 h, EC50 [1]: > 50800 nM | SOS assay EC50 [2]: 313 nM
